In patent publication EP0659766A1 one finds ¹²⁵I-IL-1α bound to EL4 cells (cpm) data, which are given here for one molecule.

This assay concerns the target T1, IL-1 receptors expressed on murine thymoma EL4 cells (murine) (UniProt P13504).
T1 sequence (looked up): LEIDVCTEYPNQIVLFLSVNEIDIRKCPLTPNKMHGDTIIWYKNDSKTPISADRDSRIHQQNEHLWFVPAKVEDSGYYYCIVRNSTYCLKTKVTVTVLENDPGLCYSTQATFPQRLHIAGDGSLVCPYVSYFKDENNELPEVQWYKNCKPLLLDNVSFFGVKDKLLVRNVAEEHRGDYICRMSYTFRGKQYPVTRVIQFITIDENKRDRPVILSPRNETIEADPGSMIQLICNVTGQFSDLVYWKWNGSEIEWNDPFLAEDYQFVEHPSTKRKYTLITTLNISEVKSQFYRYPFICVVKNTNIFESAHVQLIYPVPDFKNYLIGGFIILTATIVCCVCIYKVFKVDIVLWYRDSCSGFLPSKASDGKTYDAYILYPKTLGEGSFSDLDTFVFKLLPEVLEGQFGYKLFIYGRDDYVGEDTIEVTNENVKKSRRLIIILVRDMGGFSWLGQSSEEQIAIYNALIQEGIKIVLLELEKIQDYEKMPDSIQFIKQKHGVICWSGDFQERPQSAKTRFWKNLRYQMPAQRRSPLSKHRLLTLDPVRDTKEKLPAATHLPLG
Put plainly: binding of 70 pM human ¹²⁵I-IL-1α to 1 x 10⁶ EL4 cells, no serum.

B1: recombinant human IL-1 alpha (IL-1α) (ligand, UniProt P01583 113-271, looked up)
chain: SAPFSFLSNVKYNFMRIIKYEFILNDALNQSIIRANDQYLTAAALHNLDEAVKFDMGAYKSSKDDAKITVILRISKTQLYVTAQDEDQPVLLKEMPEIPKTITGSETNLLFFWETHGTKNYFTSVAHPNLFIATKQDYWVCLAGGPPSITDFQILENQA
In turn, B1 gave a ¹²⁵I-IL-1α bound to EL4 cells (cpm) of 4520 cpm.
